Assay results from patent publication US20140161732A1.
Bridge positions count the residues as written; N and C are the ends. Side chains are listed from the residue outwards. * marks the point of attachment. Biotin = O=C1N[C@H]2[C@H](CS[C@H]2CCCCC(=O)*)N1; AEEA = NCCOCCOCC(=O)O

Assays:
[1] = molecular target: T1, KDR expressed on transiently transfected 293H cells (human), P35968; experiment: competition with 125I-VEGF on KDR-transfected 293H cells (mock subtracted), peptide at 30 µM; settings: remark: other sources report otherwise
T1 sequence (P35968 20-1356): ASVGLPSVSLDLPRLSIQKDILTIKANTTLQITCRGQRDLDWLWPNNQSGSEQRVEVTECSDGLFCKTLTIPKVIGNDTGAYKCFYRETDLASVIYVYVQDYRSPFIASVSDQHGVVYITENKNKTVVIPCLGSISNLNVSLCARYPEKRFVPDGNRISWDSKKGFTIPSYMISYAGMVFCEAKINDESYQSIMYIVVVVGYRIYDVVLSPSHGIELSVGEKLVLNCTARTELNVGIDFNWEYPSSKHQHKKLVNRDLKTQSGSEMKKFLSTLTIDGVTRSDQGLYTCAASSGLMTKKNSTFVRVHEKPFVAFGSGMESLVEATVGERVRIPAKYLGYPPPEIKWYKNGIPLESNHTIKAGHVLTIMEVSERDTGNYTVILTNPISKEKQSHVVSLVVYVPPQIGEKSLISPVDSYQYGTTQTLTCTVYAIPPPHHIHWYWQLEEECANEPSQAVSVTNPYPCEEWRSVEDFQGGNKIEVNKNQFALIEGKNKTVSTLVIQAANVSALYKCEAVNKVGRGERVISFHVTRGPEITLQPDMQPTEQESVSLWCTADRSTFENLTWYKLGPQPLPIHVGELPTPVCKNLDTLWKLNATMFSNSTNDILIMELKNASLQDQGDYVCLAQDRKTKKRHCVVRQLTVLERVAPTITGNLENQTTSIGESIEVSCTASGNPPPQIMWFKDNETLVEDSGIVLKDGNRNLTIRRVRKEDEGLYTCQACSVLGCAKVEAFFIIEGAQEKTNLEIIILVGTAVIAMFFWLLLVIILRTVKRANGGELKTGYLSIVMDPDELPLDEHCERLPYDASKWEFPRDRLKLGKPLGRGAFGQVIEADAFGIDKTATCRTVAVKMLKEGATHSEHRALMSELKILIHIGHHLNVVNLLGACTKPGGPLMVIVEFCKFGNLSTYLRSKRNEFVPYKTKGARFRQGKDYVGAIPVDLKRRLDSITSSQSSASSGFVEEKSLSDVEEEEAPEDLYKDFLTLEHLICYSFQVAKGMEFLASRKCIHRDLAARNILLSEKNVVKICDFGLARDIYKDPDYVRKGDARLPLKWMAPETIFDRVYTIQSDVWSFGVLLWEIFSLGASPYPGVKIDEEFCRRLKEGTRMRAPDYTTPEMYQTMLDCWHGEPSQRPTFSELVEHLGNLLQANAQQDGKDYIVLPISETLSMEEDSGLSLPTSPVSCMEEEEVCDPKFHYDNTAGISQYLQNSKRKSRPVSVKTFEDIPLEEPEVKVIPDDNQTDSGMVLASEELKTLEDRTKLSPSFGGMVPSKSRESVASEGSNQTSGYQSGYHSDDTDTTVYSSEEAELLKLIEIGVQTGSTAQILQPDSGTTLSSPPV

[2] = molecular target: T1, KDR expressed on transiently …; experiment: competition with 125I-VEGF on KDR-transfected 293H cells (mock subtracted), peptide at 0.3 µM; settings: remark: other sources report otherwise

% inhibition of 125I-labeled VEGF binding [1]: 48%
% inhibition of 125I-labeled VEGF binding [2]: 24.4%
B1: biotinylated SEQ ID NO:264 with a JJ spacer (peptide)
peptide: Ac-AGPKWCEEDWYYCMITGTGGGK([AEEA-AEEA-Biotin])-NH2
modifications: disulfide 6-13 (inferred)
